In publication PMC9958556, “Genomic Distribution of Pro-Virulent cpdB-like Genes in Eubacteria and Comparison of the Enzyme Specificity of CpdB-like Proteins from Salmonella enterica, Escherichia coli and Streptococcus suis” (International Journal of Molecular Sciences, 2023):

Columns and labels:
[1] = tested on: Nc1nc2c(ncn2[C@@H]2O[C@@H]3COP(=O)(O)O[C@H]4[C@@H](O)[C@H](n5cnc6c(N)ncnc65)O[C@@H]4COP(=O)(O)O[C@H]3[C@H]2O)c(=O)[nH]1; test: purified protein; settings: 50 mM Tris-HCl pH 7.5, 2 mM MnCl2, 0.1 mg/mL BSA, 37 °C
[2] = tested on: Nc1ccn([C@@H]2O[C@H](CO)[C@H]3OP(=O)(O)O[C@H]32)c(=O)n1; test: purified protein; settings: 50 mM Tris-HCl pH 7.5, 2 mM MnCl2, 0.1 mg/mL BSA, 37 °C, excess alkaline phosphatase
From the text: (§1) coupled alkaline phosphatase, colorimetric phosphate release, initial rates, Michaelis-Menten fit on S. enterica CpdB

[3] = tested on: Nc1ncnc2c1ncn2[C@@H]1O[C@H](CO)[C@@H](OP(=O)(O)O)[C@H]1O; test: purified protein; settings: 50 mM Tris-HCl pH 7.5, 2 mM MnCl2, 0.1 mg/mL BSA, 37 °C
From the text: (§2) colorimetric phosphate release, initial rates, Michaelis-Menten fit on S. enterica CpdB

[4] = tested on: Nc1ncnc2c1ncn2[C@@H]1O[C@H](COP(=O)(O)O[C@H]2[C@@H](O)[C@H](n3cnc4c(N)ncnc43)O[C@@H]2COP(=O)(O)O)[C@@H](O)[C@H]1O; test: purified protein; settings: 50 mM Tris-HCl pH 7.5, 2 mM MnCl2, 0.1 mg/mL BSA, 37 °C
[5] = tested on: Nc1ncnc2c1ncn2[C@@H]1O[C@H](CO)[C@H]2OP(=O)(O)O[C@H]21; test: purified protein; settings: 50 mM Tris-HCl pH 7.5, 2 mM MnCl2, 0.1 mg/mL BSA, 37 °C, excess alkaline phosphatase
From the text: as §1

[6] = tested on: Nc1ncnc2c1ncn2[C@@H]1O[C@H](COP(=O)(O)OP(=O)(O)OP(=O)(O)OP(=O)(O)OC[C@H]2O[C@@H](n3cnc4c(N)ncnc43)[C@H](O)[C@@H]2O)[C@@H](O)[C@H]1O; test: purified protein; settings: 50 mM Tris-HCl pH 7.5, 2 mM MnCl2, 0.1 mg/mL BSA, 37 °C, excess alkaline phosphatase
From the text: as §1

[7] = tested on: Nc1ncnc2c1ncn2[C@@H]1O[C@@H]2COP(=O)(O)O[C@H]3[C@@H](O)[C@H](n4cnc5c(N)ncnc54)O[C@@H]3COP(=O)(O)O[C@H]3[C@@H](O)[C@H](n4cnc5c(N)ncnc54)O[C@@H]3COP(=O)(O)O[C@H]3[C@@H](O)[C@H](n4cnc5c(N)ncnc54)O[C@@H]3COP(=O)(O)O[C@H]3[C@@H](O)[C@H](n4cnc5c(N)ncnc54)O[C@@H]3COP(=O)(O)O[C@H]3[C@@H](O)[C@H](n4cnc5c(N)ncnc54)O[C@@H]3COP(=O)(O)O[C@H]2[C@H]1O; test: purified protein; settings: 50 mM Tris-HCl pH 7.5, 2 mM MnCl2, 0.1 mg/mL BSA, 37 °C
[8] = tested on: Nc1nc2c(ncn2[C@@H]2O[C@H](CO)[C@H]3OP(=O)(O)O[C@H]32)c(=O)[nH]1; test: purified protein; settings: 50 mM Tris-HCl pH 7.5, 2 mM MnCl2, 0.1 mg/mL BSA, 37 °C, excess alkaline phosphatase
From the text: as §1

[9] = tested on: Nc1nc2c(ncn2[C@@H]2O[C@H](CO)[C@@H](OP(=O)(O)O)[C@H]2O)c(=O)[nH]1; test: purified protein; settings: 50 mM Tris-HCl pH 7.5, 2 mM MnCl2, 0.1 mg/mL BSA, 37 °C
From the text: as §2

[10] = tested on: Nc1ncnc2c1ncn2[C@@H]1O[C@@H]2COP(=O)(O)O[C@H]3[C@@H](O)[C@H](n4cnc5c(N)ncnc54)O[C@@H]3COP(=O)(O)O[C@H]3[C@@H](O)[C@H](n4cnc5c(N)ncnc54)O[C@@H]3COP(=O)(O)O[C@H]3[C@@H](O)[C@H](n4cnc5c(N)ncnc54)O[C@@H]3COP(=O)(O)O[C@H]2[C@H]1O; test: purified protein; settings: 50 mM Tris-HCl pH 7.5, 2 mM MnCl2, 0.1 mg/mL BSA, 37 °C
[11] = tested on: O=[N+]([O-])c1ccc(OP(=O)(O)Oc2ccc([N+](=O)[O-])cc2)cc1; test: purified protein; settings: 50 mM Tris-HCl pH 7.5, 2 mM MnCl2, 0.1 mg/mL BSA, 37 °C, excess alkaline phosphatase
From the text: as §1

[12] = tested on: Nc1nc2c(ncn2[C@@H]2O[C@@H]3CO[P@](=O)(O)O[C@H]4[C@@H](O)[C@H](n5cnc6c(=O)[nH]c(N)nc65)O[C@@H]4CO[P@](=O)(O)O[C@H]3[C@H]2O)c(=O)[nH]1; test: purified protein; settings: 50 mM Tris-HCl pH 7.5, 2 mM MnCl2, 0.1 mg/mL BSA, 37 °C
[13] = tested on: [H][C@@]1(O)[C@]2([H])OP(=O)(O)OC[C@@]3([H])O[C@@]([H])(n4cnc5c(N)ncnc54)[C@]([H])(O)[C@]3([H])OP(=O)(O)OC[C@@]2([H])O[C@@]1([H])n1cnc2c(N)ncnc21; test: purified protein; settings: 50 mM Tris-HCl pH 7.5, 2 mM MnCl2, 0.1 mg/mL BSA, 37 °C
[14] = tested on: Nc1ncnc2c1ncn2[C@@H]1O[C@H](COP(=O)(O)OP(=O)(O)OP(=O)(O)OC[C@H]2O[C@@H](n3cnc4c(N)ncnc43)[C@H](O)[C@@H]2O)[C@@H](O)[C@H]1O; test: purified protein; settings: 50 mM Tris-HCl pH 7.5, 2 mM MnCl2, 0.1 mg/mL BSA, 37 °C, excess alkaline phosphatase
From the text: as §1

[15] = tested on: O=c1ccn([C@@H]2O[C@H](CO)[C@@H](OP(=O)(O)O)[C@H]2O)c(=O)[nH]1; test: purified protein; settings: 50 mM Tris-HCl pH 7.5, 2 mM MnCl2, 0.1 mg/mL BSA, 37 °C
From the text: as §2

[16] = tested on: Nc1ncnc2c1ncn2[C@@H]1O[C@H](COP(=O)(O)OP(=O)(O)O)[C@@H](O)[C@H]1O; test: purified protein; settings: 50 mM Tris-HCl pH 7.5, 2 mM MnCl2, 0.1 mg/mL BSA, 37 °C
From the text: as §2

[17] = tested on: O=c1ccn([C@@H]2O[C@H](CO)[C@H]3OP(=O)(O)O[C@H]32)c(=O)[nH]1; test: purified protein; settings: 50 mM Tris-HCl pH 7.5, 2 mM MnCl2, 0.1 mg/mL BSA, 37 °C, excess alkaline phosphatase
From the text: as §1

SntA = tested on: T1, SntA; test: HPLC at […] nm of […]'-AMP formed, initial rates, Michaelis-Menten fit; type: biochemical, Streptococcus suis; settings: 50 mM Tris-HCl pH 7.5, 2 mM MnCl2, 0.1 mg/mL BSA, 37 °C; read-out: K m ^1 /
T1 construct: cell wall-attached protein of 813 residues; preparation from earlier work [10]

S. enterica CpdB (Salmonella enterica subsp. enterica serovar Typhimurium str. LT2)
Km [1]: 2.13 ± 0.32 µM | kcat [1]: 0.3 ± 0.03 s⁻¹ | kcat/Km [1]: 197000 M⁻¹ s⁻¹ | Km [2]: 4.52 ± 0.69 µM | kcat [2]: 146 ± 9.39 s⁻¹ | kcat/Km [2]: 3.32e+07 M⁻¹ s⁻¹ | Km [3]: 6.53 ± 1.16 µM | kcat [3]: 172 ± 41.3 s⁻¹ | kcat/Km [3]: 2.76e+07 M⁻¹ s⁻¹ | Km [4]: 0.22 ± 0.12 µM | kcat [4]: 2.85 ± 1.04 s⁻¹ | kcat/Km [4]: 1.39e+07 M⁻¹ s⁻¹ | Km [5]: 14.41 ± 3.68 µM | kcat [5]: 209 ± 16.9 s⁻¹ | kcat/Km [5]: 1.53e+07 M⁻¹ s⁻¹ | Km [6]: 49.21 ± 12.46 µM | kcat [6]: 2.64 ± 0.24 s⁻¹ | kcat/Km [6]: 55000 M⁻¹ s⁻¹ | Km [7]: 24.24 ± 7.60 µM | kcat [7]: 0.006 ± 0.001 s⁻¹ | kcat/Km [7]: 238 M⁻¹ s⁻¹ | Km [8]: 7.52 ± 1.46 µM | kcat [8]: 120 ± 4.74 s⁻¹ | kcat/Km [8]: 1.63e+07 M⁻¹ s⁻¹ | Km [9]: 4.66 ± 1.34 µM | kcat [9]: 219 ± 48.7 s⁻¹ | kcat/Km [9]: 5.23e+07 M⁻¹ s⁻¹ | Km [10]: 18.44 ± 4.95 µM | kcat [10]: 0.042 ± 0.001 s⁻¹ | kcat/Km [10]: 2370 M⁻¹ s⁻¹ | Km [11]: 33.74 ± 4.77 µM | kcat [11]: 250 ± 9.82 s⁻¹ | kcat/Km [11]: 7.53e+06 M⁻¹ s⁻¹ | Km [12]: 4.12 ± 0.98 µM | kcat [12]: 0.09 ± 0.01 s⁻¹ | kcat/Km [12]: 22400 M⁻¹ s⁻¹ | Km [13]: 8.89 ± 2.31 µM | kcat [13]: 0.31 ± 0.06 s⁻¹ | kcat/Km [13]: 35500 M⁻¹ s⁻¹ | Km [14]: 69.09 ± 19.31 µM | kcat [14]: 2.1 ± 0.17 s⁻¹ | kcat/Km [14]: 31600 M⁻¹ s⁻¹ | Km [15]: 4.54 ± 0.53 µM | kcat [15]: 155 ± 13.3 s⁻¹ | kcat/Km [15]: 3.42e+07 M⁻¹ s⁻¹ | Km [16]: 28.09 ± 1.82 µM | kcat [16]: 2.83 ± 0.19 s⁻¹ | kcat/Km [16]: 101000 M⁻¹ s⁻¹ | Km [17]: 22.65 ± 2.56 µM | kcat [17]: 324 ± 21.8 s⁻¹ | kcat/Km [17]: 1.44e+07 M⁻¹ s⁻¹

Nc1ncnc2c1ncn2[C@@H]1O[C@@H]2COP(=O)(O)O[C@H]3[C@@H](O)[C@H](n4cnc5c(N)ncnc54)O[C@@H]3COP(=O)(O)O[C@H]3[C@@H](O)[C@H](n4cnc5c(N)ncnc54)O[C@@H]3COP(=O)(O)O[C@H]3[C@@H](O)[C@H](n4cnc5c(N)ncnc54)O[C@@H]3COP(=O)(O)O[C@H]2[C@H]1O [c-tetra-AMP]
Km (SntA): 262 ± 62.1 µM

Nc1ncnc2c1ncn2[C@@H]1O[C@@H]2COP(=O)(O)O[C@H]3[C@@H](O)[C@H](n4cnc5c(N)ncnc54)O[C@@H]3COP(=O)(O)O[C@H]3[C@@H](O)[C@H](n4cnc5c(N)ncnc54)O[C@@H]3COP(=O)(O)O[C@H]3[C@@H](O)[C@H](n4cnc5c(N)ncnc54)O[C@@H]3COP(=O)(O)O[C@H]3[C@@H](O)[C@H](n4cnc5c(N)ncnc54)O[C@@H]3COP(=O)(O)O[C@H]3[C@@H](O)[C@H](n4cnc5c(N)ncnc54)O[C@@H]3COP(=O)(O)O[C@H]2[C@H]1O [c-hexa-AMP]
Km (SntA): 2.63 ± 0.88 µM
